Consider six molecules from patent publication US20030143697A1.

In test [1] the target is recombinant human IL-1 (human). The experiment in a line: cell-based or functional assay.
In a further test the target is human IL-4 (human) (UniProt P05112). Briefly: cell-based or functional assay.
A further test has as its target human IL-13 (human) (UniProt P35225). Briefly: cell-based or functional assay.
Test [2] deals with human IL-6 (human) (UniProt P05231). The experiment in a line: cell-based or functional assay.
The target in another test is T1, gp130 on PC12D cells (UniProt P40190).
T1 sequence (looked up): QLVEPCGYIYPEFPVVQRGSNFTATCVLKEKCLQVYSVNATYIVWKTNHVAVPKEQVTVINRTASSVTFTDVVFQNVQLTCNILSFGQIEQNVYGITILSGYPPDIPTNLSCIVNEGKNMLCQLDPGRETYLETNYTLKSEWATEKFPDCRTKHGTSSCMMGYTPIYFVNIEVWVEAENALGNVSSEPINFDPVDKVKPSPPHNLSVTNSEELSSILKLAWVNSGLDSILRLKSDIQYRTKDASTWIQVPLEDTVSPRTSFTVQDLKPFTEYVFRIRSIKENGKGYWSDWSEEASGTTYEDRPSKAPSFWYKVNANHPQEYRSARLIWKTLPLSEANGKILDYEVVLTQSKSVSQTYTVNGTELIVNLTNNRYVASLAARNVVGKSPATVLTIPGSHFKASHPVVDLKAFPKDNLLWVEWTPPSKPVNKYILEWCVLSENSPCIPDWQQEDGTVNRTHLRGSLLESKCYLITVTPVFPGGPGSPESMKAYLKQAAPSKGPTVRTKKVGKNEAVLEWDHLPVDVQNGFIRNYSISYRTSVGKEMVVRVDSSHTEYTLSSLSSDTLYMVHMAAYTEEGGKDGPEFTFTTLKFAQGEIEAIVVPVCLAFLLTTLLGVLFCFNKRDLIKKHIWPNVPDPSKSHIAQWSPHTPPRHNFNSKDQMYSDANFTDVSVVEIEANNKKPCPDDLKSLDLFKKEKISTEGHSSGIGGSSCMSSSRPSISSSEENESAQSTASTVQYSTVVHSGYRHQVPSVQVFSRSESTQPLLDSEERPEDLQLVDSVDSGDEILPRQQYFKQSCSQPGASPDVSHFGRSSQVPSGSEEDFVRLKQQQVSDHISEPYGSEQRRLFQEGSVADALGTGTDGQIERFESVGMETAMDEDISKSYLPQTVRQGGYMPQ
Briefly: cell-based or functional assay.

For test [3], the target named is human IL-6 (human) (UniProt P05231). The experiment in a line: dissociation of 20 pM 125I-IL-6 from 500 pM mAb B-E8 after a 1000-fold excess of cold IL-6; Protein G-Sepharose precipitation.
For test [4] the target is unchanged. The experiment in a line: cell-based or functional assay. The source holds these as a separate data set.

human IL-13 (human), sequence (P35225 35-146 limits assumed): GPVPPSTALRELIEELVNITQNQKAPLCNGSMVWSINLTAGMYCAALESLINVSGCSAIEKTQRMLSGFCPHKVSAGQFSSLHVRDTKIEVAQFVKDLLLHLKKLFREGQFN
human IL-6 (human), sequence (P05231 30-212 limits assumed): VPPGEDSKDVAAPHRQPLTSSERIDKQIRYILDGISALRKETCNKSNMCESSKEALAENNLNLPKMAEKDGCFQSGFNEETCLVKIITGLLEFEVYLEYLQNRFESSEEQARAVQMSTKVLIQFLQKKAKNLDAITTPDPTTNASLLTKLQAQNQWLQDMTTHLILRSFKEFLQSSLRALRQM
human IL-4 (human), sequence (P05112 25-153 limits assumed): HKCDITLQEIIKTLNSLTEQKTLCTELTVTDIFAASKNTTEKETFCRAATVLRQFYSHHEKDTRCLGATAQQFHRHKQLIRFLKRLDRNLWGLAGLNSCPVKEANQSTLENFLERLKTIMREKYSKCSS

For “IL-1-RI.Fc (from UniProt P14778 18-336) (Fc fusion)”, the IL-1-dependent production of IL-6 by MRC5 cells; highest IL-1 concentration blocked in test [1] lay within 10 to 20 pM.
In the test with human IL-4 (human), IL-4Rα.IL-13Rα1.Fc (Fc fusion) came in with a TF1 bioassay (MTS); IL-4 concentration at which growth is inhibited by 50% with 10 nM Trap of 3 to 4 nM and a TF1 bioassay (MTS); highest IL-4 concentration whose growth effect is blocked by 10 nM Trap of 1 nM. Moreover, in the test with human IL-13 (human), the TF1 bioassay (MTS); IL-13 concentration at which growth is inhibited by 50% with 10 nM Trap is 4 to 5 nM and the TF1 bioassay (MTS); highest IL-13 concentration whose growth effect is blocked by 10 nM Trap came to 2 nM.
In the test with human IL-4 (human), IL-13Rα1.IL-4Rα.Fc (Fc fusion) registered a TF1 bioassay (MTS); IL-4 concentration at which growth is inhibited by 50% with 10 nM Trap of 3 to 4 nM and a TF1 bioassay (MTS); highest IL-4 concentration whose growth effect is blocked by 10 nM Trap of 1 nM. For the same molecule, in the test with human IL-13 (human), the TF1 bioassay (MTS); IL-13 concentration at which growth is inhibited by 50% with 10 nM Trap lay within 4 to 5 nM and the TF1 bioassay (MTS); highest IL-13 concentration whose growth effect is blocked by 10 nM Trap stood at 2 nM.
Consider “gp130-Fc•CNTFRα-Fc ligand Trap (Fc fusion)”, for which the IL-6-dependent proliferation of XG-1 cells (MTT assay) (fold molar excess over IL-6) in the test with human IL-6 (human) [2] amounted to 1000.

B1: Rat CNTF (ligand, UniProt P20294 1-200, looked up)
chain: MAFAEQTPLTLHRRDLCSRSIWLARKIRSDLTALMESYVKHQGLNKNINLDSVDGVPVASTDRWSEMTEAERLQENLQAYRTFQGMLTKLLEDQRVHFTPTEGDFHQAIHTLMLQVSAFAYQLEELMVLLEQKIPENEADGMPATVGDGGLFEKKLWGLKVLQELSQWTVRSIHDLRVISSHQMGISALESHYGAKDKQM
Regarding B1, in the test with gp130 on PC12D cells, the tyrosine phosphorylation of gp130 induced by IL-6 and sIL-6Rα in PC12D cells was found to be 8 nM; the tyrosine phosphorylation of gp130 induced by IL-6 in PC12D cells (anti-gp130 immunoprecipitation, anti-phosphotyrosine immunoblot) turned out to be 2 nM.

B2: anti-IL-6 monoclonal neutralizing antibody B-E8 (antibody, from another filing, V domains shown)
VH: QVTLKESGPGILKPSQTLSLTCSFSGFSLSTSGMGVGWIRQPSGKGLEWLAHIWWDDDKYYNPSLKSQLTISKDTSRNQVFLKITSVDTADTATYYCARSYDDYLYYALDYWGQGTSVTVSS
VL: DIVMTQSPATLSVTPGDRVSLSCRASQSISDYLHWYQQKSHESPRLLIKSVSQSISGIPSRFSGSGSGSDFTLSINSVEPEDVGVYYCQNGHSFPLTFGAGTKLELK
As to B2, the percent of the initial counts of 125I-IL-6 still bound after three days in the test with human IL-6 (human) [3] was < 5%. This molecule also had an IL-6-dependent proliferation of XG-1 cells (MTT assay, 50 pg/ml IL-6) (fold molar excess) with human IL-6 (human) [4] of 10.
